Where a chain is given by its changes, count along the chain named.

This note sets out measurements from patent US20130089872A1 (LIVTECH, published 2013).

The target of assay [1] is T1, hmTROP-2-C chimeric protein (human; mouse, UniProt Q8BGV3 140-317).
T1 construct: range 140-C-terminus; constitutively expressed on HEK293 cells; signal peptide 1-26 of hTROP-2 left out; also called human/mouse chimeric TROP-2-C; not shown: C-terminal myc/His tag from the vector
T1 sequence: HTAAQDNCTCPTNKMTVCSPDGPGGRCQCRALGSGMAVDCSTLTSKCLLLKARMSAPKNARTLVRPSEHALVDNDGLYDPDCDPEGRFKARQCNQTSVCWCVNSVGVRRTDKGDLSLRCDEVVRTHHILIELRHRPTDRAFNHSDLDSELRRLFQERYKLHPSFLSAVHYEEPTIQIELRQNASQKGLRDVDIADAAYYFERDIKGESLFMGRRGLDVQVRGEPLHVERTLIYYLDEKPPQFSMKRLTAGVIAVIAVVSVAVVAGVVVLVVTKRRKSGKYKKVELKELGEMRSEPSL
Put plainly: FACS on HEK293 cells constantly expressing hmTROP-2-C.

Assay [2] has as its target T2, mouse TROP-2 protein (mouse, UniProt Q8BGV3 25-317).
T2 construct: whole, on cells
T2 sequence (looked up): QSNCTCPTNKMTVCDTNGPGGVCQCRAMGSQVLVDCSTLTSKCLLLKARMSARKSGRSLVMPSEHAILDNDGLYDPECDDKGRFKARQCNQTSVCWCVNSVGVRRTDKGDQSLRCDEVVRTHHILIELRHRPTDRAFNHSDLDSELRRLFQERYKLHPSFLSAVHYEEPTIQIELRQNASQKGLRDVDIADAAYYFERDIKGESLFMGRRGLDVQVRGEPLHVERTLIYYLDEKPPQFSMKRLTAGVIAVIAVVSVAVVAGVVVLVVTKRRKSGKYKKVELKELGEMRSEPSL
Put plainly: FACS on CHO-K1 cells transiently expressing mouse TROP-2. From the text: (§1) Specifically, each of an expression vector (mouse TROP-2-pcDNA3.1(+), furnished by the Institute of Molecular and Cellular Biosciences, the University of Tokyo) comprising the full-length cDNA of a mouse TROP-2 gene (GenBank accession No. NM_{—}020047, Y08830), and an expression vector (pcDNA3.1-hEpCAM-myc/His) comprising the full-length cDNA of a human TROP-1/EpCAM gene (GenBank accession No. NM_{—}002354), was transiently introduced into CHO-K1 cells, using Lipofectamine2000 reagent (Invitrogen). Thereafter, 24 to 48 hours later, the cells were removed from a culture dish by treating them with trypsin, and a cell suspension was then prepared. The thus prepared cell suspension was successively reacted with the produced anti-hTROP-2 monoclonal antibody (0.1 μg) and with PE-labeled anti-mouse IgG, and it was then analyzed by FACSCalibur.

Assay [3] addresses T3, human TROP-1/EpCAM protein (human, UniProt P16422 24-314).
T3 construct: whole, on cells; vector adds a C-terminal myc/His tag; also called human EpCAM/TROP-1; hEpCAM
T3 sequence (looked up): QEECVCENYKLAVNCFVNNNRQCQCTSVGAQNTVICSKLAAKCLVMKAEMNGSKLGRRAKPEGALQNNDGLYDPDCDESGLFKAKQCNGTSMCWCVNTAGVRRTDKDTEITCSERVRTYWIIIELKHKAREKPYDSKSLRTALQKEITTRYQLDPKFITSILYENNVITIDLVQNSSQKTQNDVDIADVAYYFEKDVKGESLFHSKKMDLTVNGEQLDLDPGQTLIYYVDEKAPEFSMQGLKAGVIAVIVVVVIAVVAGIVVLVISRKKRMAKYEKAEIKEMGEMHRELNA
Put plainly: FACS on CHO-K1 cells transiently expressing human EpCAM/TROP-1.
Excerpt: as §1

Assay [4] addresses T4, recombinant protein of the extracellular region of hTROP-2 (human, UniProt P09758 27-263).
T4 construct: made with baculovirus, purified on Ni Sepharose; also called purified recombinant hTROP-2 protein; hTROP-2 EC; not shown: C-terminal myc/His tag from the pcDNA4/myc-His A vector
T4 sequence: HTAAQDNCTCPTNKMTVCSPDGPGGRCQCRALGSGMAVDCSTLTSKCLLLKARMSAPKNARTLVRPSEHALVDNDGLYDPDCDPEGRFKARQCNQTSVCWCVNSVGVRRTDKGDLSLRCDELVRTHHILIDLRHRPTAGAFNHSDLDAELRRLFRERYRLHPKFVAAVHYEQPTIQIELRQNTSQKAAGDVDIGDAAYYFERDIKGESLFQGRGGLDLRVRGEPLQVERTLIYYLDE
Put plainly: equilibrium competition ELISA (Djavadi-Ohaniance method), recombinant hTROP-2. On the procedure: The antigen binding affinity (Kd value) of the generated anti-hTROP-2 monoclonal antibody was calculated by a method using ELISA (Djavadi-Ohaniance L. et al (1996), In Antibody Engineering, Chapter 4, pp. 77-97. IRL Press, Oxford).
Specifically, the purified recombinant hTROP-2 protein (0.1 μg/mL) was added to a 96-well culture plate (Corning) so that the antigen was solid-phased (at room temperature for 1 hour, or at 4° C. overnight). Subsequently, the resultant was washed with PBS three times, and 2% skim milk (PBS solution) was then added thereto to block it (at room temperature for 1 hour). The resultant was washed with PBS twice. […] The reaction product was washed with PBS three times, and it was then reacted with HRP-labeled anti-mouse IgG (final concentration: 1 μg/mL) (GE Healthcare Biosciences) diluted with a blocking solution (at room temperature for 1 hour). Subsequently, the reaction product was washed with a 0.1% Tween20-PBS solution three times, and a TMB (3,3′,5,5′-tetramethylbenzidine: SIGMA) substrate solution was then added to the resultant to carry out a color reaction. Then, 1 M sulfuric acid was added to the reaction product to terminate the reaction. Using Microplate reader Model 550 (BIO RAD), absorbance was measured.
Background: ELISA stands for enzyme-linked immunosorbent assay.

The target of assay [5] is Table 9 peptide No. 14. Description: PEPSCAN/CLIPS peptide ELISA, antibody 1 ug/mL.
Assay [6] has as its target T5, Table 9 peptide No. 26.
T5 construct: CLIPS format (inferred); native Cys replaced by Ala as printed
T5 peptide: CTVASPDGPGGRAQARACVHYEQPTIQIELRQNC
Put plainly: PEPSCAN/CLIPS peptide ELISA, antibody 1 ug/mL. On the procedure: 5034 types of the synthesized peptides were covalently bound to PEPSCAN cards (455 peptides/card), and the binding of the synthesized peptides to antibodies was then analyzed by the ELISA method. […] After washing, the resultant was allowed to react with a 1000-fold diluted peroxidase-secondary antibody complex at 25° C. for 1 hour. After washing, a substrate solution (a solution containing 2,2′-azino-di-3-ethylbenzthiazoline sulfonate (ABTS) and 2 μL of 3% hydrogen peroxide solution) was added to the reaction solution, followed by a chromogenic reaction for 1 hour. The binding activity of the antibodies was quantified by photographing with a CCD camera and then performing an image analysis.

Assay [7] has as its target T6, hmTROP-2-A chimeric protein (human; mouse, UniProt Q8BGV3 64-317).
T6 construct: range 64-C-terminus; transiently expressed on HEK293 cells; also called human/mouse TROP-2-A; not shown: C-terminal myc/His tag from the vector
T6 sequence: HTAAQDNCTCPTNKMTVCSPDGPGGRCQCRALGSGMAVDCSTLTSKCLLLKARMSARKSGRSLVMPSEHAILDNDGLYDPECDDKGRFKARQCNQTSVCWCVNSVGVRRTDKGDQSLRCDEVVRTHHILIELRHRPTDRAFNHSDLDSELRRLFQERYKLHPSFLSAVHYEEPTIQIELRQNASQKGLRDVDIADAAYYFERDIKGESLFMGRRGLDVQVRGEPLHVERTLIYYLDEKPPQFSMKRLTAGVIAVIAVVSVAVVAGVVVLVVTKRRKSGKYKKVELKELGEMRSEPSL
Description: FACS on HEK293 cells transiently expressing hmTROP-2-A.

Assay [8] has as its target T7, human TROP-2 (hTROP-2) protein (human, UniProt P09758 27-323).
T7 construct: also called Tacstd2; GA733-1
T7 sequence: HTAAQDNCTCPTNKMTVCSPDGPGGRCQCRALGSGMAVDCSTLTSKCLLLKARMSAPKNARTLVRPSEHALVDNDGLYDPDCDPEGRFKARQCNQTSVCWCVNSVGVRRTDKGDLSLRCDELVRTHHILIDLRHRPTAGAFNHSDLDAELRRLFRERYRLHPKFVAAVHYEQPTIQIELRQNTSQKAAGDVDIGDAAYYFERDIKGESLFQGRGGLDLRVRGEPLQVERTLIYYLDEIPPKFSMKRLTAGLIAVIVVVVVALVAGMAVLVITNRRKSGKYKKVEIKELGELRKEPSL
Description: FACS on PK-59 cells (endogenous hTROP-2), 0.1 ug antibody. The method, then:
(§2) Cancer cells were removed from a culture dish by a trypsin treatment, and a cell suspension was then prepared (cell density: 2×10⁶ cells/mL). An anti-hTROP-2 monoclonal antibody (0.1 μg) was added to 100 μL of the cell suspension, and they were then reacted at 4° C. for 20 minutes. The reaction solution was washed with PBS, and it was then reacted with PE-labeled anti-mouse IgG (BD Biosciences Pharmingen) (0.1 μg) (at 4° C. for 30 minutes). Thereafter, the resultant was analyzed by FACSCalibur (Becton, Dickinson and Company).

In assay [9] the target is T7, human TROP-2 (hTROP-2) protein. Description: FACS on BxPC-3 cells (endogenous hTROP-2), 0.1 ug antibody. On the procedure: as §2
For assay [10], the target named is Table 7 peptide No. 16. Put plainly: PEPSCAN/CLIPS peptide ELISA, antibody 1 ug/mL.
For assay [11], the target named is Table 7 peptide No. 19. Put plainly: PEPSCAN/CLIPS peptide ELISA, antibody 1 ug/mL.

B1: anti-hTROP-2 monoclonal antibody clone T6-16 (antibody, V domains shown)
VH: EVQLQQSGPELVKPGASVKISCKASGYTFTDYNMHWVKQSHGKNLEWIGYIYPYNGGTGYNQRFKSRATMTVDKSSSTAYMELRSLTSDDSAVYYCAREDYGSSPSYAMDYWGQGTSVIVSS
VL: DVVMTQTPLSLPVSLGDQASISCRSSQSLVHGNGNTYLHWYLQKPGQSPKLLIYKVSNRFSGVPDRFSGSGSGTDFTLKISRVEAEDLGVYFCSQTTHVPTFGSGTKLEIK
notes: mouse IgG2a purified from hybridoma ascites; also called 16-16; hybridoma FERM BP-11346
On to B1, for which the binding result is “no binding” in [1], “no binding (tested: 0.1 ug)” in assay [2] and “no binding (tested: 0.1 ug)” in [3]. Moreover, in assay [4], the Kd – broadly, a measure of binding affinity in units of concentration – came to 4.3 pM.

B2: anti-hTROP-2 monoclonal antibody clone K5-116-2-1 (antibody, V domains shown)
VH: QVQLQQPGAELVRPGASVKLSCKASGYTFTSYWITWVKQRPGQGLEWIGNIYPSDSYTNYNQKFRDKATLTVDKSSSTAYMQLSSPTSEDSAVYYCSALFDYWGQGTTLTVSS
VL: DILLTQSPAILSVSPGERVSFSCRASQSIGTSIHWYQQRTNGSPRLLIKYASESISGIPSRFSGSGSGTDFILSINSVESEDIADYYCQQSNSWPFTFGSGTKLEIK
notes: mouse IgG; also called hybridoma FERM BP-11253
In the case of B2, the binding (PEPSCAN ELISA signal) in [5] was found to be 1440; in assay [6], 1220. In addition, the binding result was “binds” in [1], “binds” in assay [7], “no binding (tested: 0.1 ug)” in [2] and “no binding (tested: 0.1 ug)” in [3]. The “mean fluorescence intensity relative to secondary antibody only” value turned out to be 122 times in assay [8] and 121 times in [9]. The Kd in assay [4] came out at 26.9 pM.

B3: anti-hTROP-2 monoclonal antibody clone K5-70 (antibody, V domains shown)
VH: QVQLQQPGAELVRPGASVKLSCKASGYTFTIYWINWVKQRPGQGLEWIGNIYPSDSYTNYNQKFKDKATLTVDKSSSTAYMQLSSPTSEDSAVYYCTRTSMADYWGQGTTLTVSS
VL: B2 VL with I72T
notes: mouse IgG2a purified from hybridoma ascites; also called K-70; hybridoma FERM BP-11251
For B3, the binding (PEPSCAN ELISA signal) amounted to 538 in assay [10] and 519 in [11]. For the same molecule, the binding result was “binds” in assay [1], “binds” in assay [7], “no binding (tested: 0.1 ug)” in assay [2] and “no binding (tested: 0.1 ug)” in [3]. For the same molecule, in assay [4], the Kd worked out at 6.8 pM.

B4: anti-hTROP-2 monoclonal antibody clone K5-107 (antibody, V domains shown)
VH: QVQLQQPGSELVRPGASVKLSCKASGYTFTSYWMHWVKQRHGQGLEWIGNIYPGGGYTNYDEKFKSKGTLTVDTSSSTAYMHLSSLTSEDSAVYYCTRSSVFDYWGQGTTLTVSS
VL: B2 VL with S28N, Y36F, I72T
notes: mouse IgG1 purified from hybridoma ascites; also called hybridoma FERM BP-11252
For the molecule B4, the binding result in assay [2] and in [3] was “no binding (tested: 0.1 ug)” each time.
